From PMC10085679, “Filament assembly underpins the double-stranded DNA specificity of AIM2-like receptors”

Experiments:
[1] = biological target: T1, AIM2FL (Homo sapiens, UniProt O14862 1-343); test: competition fluorescence anisotropy; unlabelled competitor against 6 nM 24-bp FAM-dsDNA, 100 nM protein; 160 mM KCl (60 mM KCl for IFI16HinAB); buffer, pH and temperature not given in the available text; settings: protein: recombinant
T1 sequence: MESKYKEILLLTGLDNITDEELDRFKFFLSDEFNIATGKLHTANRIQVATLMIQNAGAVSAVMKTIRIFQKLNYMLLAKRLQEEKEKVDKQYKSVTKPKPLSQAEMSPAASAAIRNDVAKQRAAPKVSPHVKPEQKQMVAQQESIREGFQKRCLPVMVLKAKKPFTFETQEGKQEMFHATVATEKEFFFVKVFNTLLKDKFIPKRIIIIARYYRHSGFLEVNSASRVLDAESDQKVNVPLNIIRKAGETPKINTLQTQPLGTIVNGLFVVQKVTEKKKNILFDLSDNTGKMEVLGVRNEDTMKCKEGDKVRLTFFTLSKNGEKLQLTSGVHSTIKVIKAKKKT

[2] = biological target: T2, IFI16HinAB (Homo sapiens, UniProt Q16666-2 159-729); test: competition fluorescence anisotropy; unlabelled competitor against 6 nM 24-bp FAM-dsDNA, 1000 nM protein; 160 mM KCl (60 mM KCl for IFI16HinAB); buffer, pH and temperature not given in the available text; settings: protein: recombinant
[3] = biological target: T3, IFI16FL (Homo sapiens, UniProt Q16666-2 1-729); test: fluorescence anisotropy; 160 mM KCl (60 mM KCl for IFI16HinAB); buffer, pH and temperature not given in the available text; settings: protein: recombinant; tags: C-terminal His6
[4] = biological target: T4, AIM2HIN (Homo sapiens, UniProt O14862 144-343); test: as above; settings: protein: recombinant
T4 sequence: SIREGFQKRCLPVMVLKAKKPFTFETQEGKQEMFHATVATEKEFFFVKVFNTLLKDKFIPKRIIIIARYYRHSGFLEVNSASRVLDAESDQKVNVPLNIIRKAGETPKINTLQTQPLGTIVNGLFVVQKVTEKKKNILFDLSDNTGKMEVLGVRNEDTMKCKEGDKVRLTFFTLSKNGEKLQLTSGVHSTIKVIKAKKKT

[5] = biological target: T1, AIM2FL; test: as above; settings: protein: recombinant
[6] = biological target: T2, IFI16HinAB; test: as above; settings: protein: recombinant
[7] = biological target: T4, AIM2HIN; test: competition fluorescence anisotropy; unlabelled competitor against 6 nM 60-bp FAM-dsDNA, 400 nM protein; 160 mM KCl (60 mM KCl for IFI16HinAB); buffer, pH and temperature not given in the available text; settings: protein: recombinant
[8] = biological target: T2, IFI16HinAB; test: as above; settings: protein: recombinant
[9] = biological target: T3, IFI16FL; test: fluorescence anisotropy; 160 mM KCl; 60 mM KCl for IFI16HinAB; FAM probe 3-6 nM (FA) or 20 nM (EMSA); binding buffer pH and temperature not in the material; settings: protein: recombinant; tags: C-terminal His6
[10] = biological target: T1, AIM2FL; test: as above; settings: protein: recombinant
[11] = biological target: T3, IFI16FL; test: competition fluorescence anisotropy; unlabelled competitor against 6 nM 60-bp FAM-dsDNA, 100 nM protein; 160 mM KCl (60 mM KCl for IFI16HinAB); buffer, pH and temperature not given in the available text; settings: protein: recombinant, tags: C-terminal His6
[12] = biological target: T4, AIM2HIN; test: competition fluorescence anisotropy; unlabelled competitor against 6 nM 24-bp FAM-dsDNA, 625 nM protein; 160 mM KCl (60 mM KCl for IFI16HinAB); buffer, pH and temperature not given in the available text; settings: protein: recombinant
[13] = biological target: T3, IFI16FL; test: competition fluorescence anisotropy; unlabelled competitor against 6 nM 24-bp FAM-dsDNA, 500 nM protein; 160 mM KCl (60 mM KCl for IFI16HinAB); buffer, pH and temperature not given in the available text; settings: protein: recombinant, tags: C-terminal His6
[14] = biological target: T2, IFI16HinAB; test: EMSA; apparent KD <=250 nM; low salt; 160 mM KCl; 60 mM KCl for IFI16HinAB; FAM probe 3-6 nM (FA) or 20 nM (EMSA); binding buffer pH and temperature not in the material; settings: protein: recombinant; label: FAM
[15] = biological target: T2, IFI16HinAB; test: fluorescence anisotropy; 60 mM KCl; 160 mM KCl; 60 mM KCl for IFI16HinAB; FAM probe 3-6 nM (FA) or 20 nM (EMSA); binding buffer pH and temperature not in the material; settings: protein: recombinant
[16] = biological target: T4, AIM2HIN; test: fluorescence anisotropy; 160 mM KCl; 60 mM KCl for IFI16HinAB; FAM probe 3-6 nM (FA) or 20 nM (EMSA); binding buffer pH and temperature not in the material; settings: protein: recombinant
[17] = biological target: T1, AIM2FL; test: competition fluorescence anisotropy; unlabelled competitor against 6 nM 60-bp FAM-dsDNA, 60 nM protein; 160 mM KCl (60 mM KCl for IFI16HinAB); buffer, pH and temperature not given in the available text; settings: protein: recombinant
[18] = biological target: T2, IFI16HinAB; test: EMSA; apparent KD >=1 uM; low salt; 160 mM KCl; 60 mM KCl for IFI16HinAB; FAM probe 3-6 nM (FA) or 20 nM (EMSA); binding buffer pH and temperature not in the material; settings: protein: recombinant; label: FAM
[19] = biological target: T1, AIM2FL; test: fluorescence anisotropy; upper-limit estimate; 160 mM KCl; 60 mM KCl for IFI16HinAB; FAM probe 3-6 nM (FA) or 20 nM (EMSA); binding buffer pH and temperature not in the material; settings: protein: recombinant
[20] = biological target: T3, IFI16FL; test: fluorescence anisotropy; printed 0.003*, upper-limit estimate; 160 mM KCl; 60 mM KCl for IFI16HinAB; FAM probe 3-6 nM (FA) or 20 nM (EMSA); binding buffer pH and temperature not in the material; settings: protein: recombinant; tags: C-terminal His6
[21] = biological target: T2, IFI16HinAB; test: EMSA; low salt; 160 mM KCl; 60 mM KCl for IFI16HinAB; FAM probe 3-6 nM (FA) or 20 nM (EMSA); binding buffer pH and temperature not in the material; settings: protein: recombinant; label: FAM

T3 sequence (Q16666 other isoform, or with tags, fused parts or gaps): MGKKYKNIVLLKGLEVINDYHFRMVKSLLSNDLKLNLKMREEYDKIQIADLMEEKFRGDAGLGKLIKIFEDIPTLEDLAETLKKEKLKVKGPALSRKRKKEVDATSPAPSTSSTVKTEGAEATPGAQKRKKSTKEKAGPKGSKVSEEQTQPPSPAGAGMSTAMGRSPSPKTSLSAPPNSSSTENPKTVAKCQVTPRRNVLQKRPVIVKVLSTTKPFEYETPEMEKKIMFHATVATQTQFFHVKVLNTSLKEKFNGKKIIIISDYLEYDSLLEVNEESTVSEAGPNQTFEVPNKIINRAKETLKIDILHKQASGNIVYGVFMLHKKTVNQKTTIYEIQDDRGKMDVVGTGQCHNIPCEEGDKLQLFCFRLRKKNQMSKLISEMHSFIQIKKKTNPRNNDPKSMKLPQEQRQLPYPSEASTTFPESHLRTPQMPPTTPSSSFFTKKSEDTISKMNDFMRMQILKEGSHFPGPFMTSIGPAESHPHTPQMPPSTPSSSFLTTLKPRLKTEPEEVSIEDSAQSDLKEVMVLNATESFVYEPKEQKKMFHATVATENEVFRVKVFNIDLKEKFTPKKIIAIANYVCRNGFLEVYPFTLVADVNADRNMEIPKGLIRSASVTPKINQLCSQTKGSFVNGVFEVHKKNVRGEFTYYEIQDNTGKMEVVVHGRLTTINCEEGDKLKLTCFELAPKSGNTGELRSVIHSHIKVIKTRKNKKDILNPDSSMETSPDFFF
T2 sequence (Q16666 other isoform, or with tags, fused parts or gaps): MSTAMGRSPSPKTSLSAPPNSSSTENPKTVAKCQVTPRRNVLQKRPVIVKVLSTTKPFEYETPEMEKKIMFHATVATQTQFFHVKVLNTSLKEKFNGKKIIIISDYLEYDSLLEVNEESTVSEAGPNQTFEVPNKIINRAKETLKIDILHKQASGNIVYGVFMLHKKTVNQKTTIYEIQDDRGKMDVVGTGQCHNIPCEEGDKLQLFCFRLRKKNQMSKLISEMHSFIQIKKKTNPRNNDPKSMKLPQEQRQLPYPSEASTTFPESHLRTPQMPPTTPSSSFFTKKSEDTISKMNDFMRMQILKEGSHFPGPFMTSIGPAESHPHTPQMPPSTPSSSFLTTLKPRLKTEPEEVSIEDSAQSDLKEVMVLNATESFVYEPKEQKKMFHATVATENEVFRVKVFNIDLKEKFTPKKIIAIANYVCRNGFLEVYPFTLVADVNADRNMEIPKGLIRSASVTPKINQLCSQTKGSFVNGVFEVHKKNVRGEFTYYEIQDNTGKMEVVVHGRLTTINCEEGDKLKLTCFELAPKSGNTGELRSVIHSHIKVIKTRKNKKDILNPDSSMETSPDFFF

B1: 60-bp dsRNA (dsRNA)
RNA 1: UAAGACACGAUGCGAUAAAAUCUGUUUGUAAAAUUUAUUAAGGGUACAAAUUGCCCUAGC
RNA 2: GCUAGGGCAAUUUGUACCCUUAAUAAAUUUUACAAACAGAUUUUAUCGCAUCGUGUCUUA
Binder B1 has an IC50 [1] of 0.0697 ± 0.0067 µM, an IC50 [2] of 1.13 ± 0.0617 µM and a Kd [3] of 0.085 ± 0.007 µM. For the same binder, the Kd [4] was 1.1 ± 0.2 µM, the Kd [5] was 0.05 ± 0.01 µM and the Kd [6] was 0.03 ± 0.01 µM. It also gave an IC50 [7] of 0.281 ± 0.0531 µM, an IC50 [8] of 1.43 ± 0.366 µM and a Kd [9] of 0.085 ± 0.007 µM. For the same binder, the Kd [10] was 0.05 ± 0.01 µM, the IC50 [11] was 1.07 ± 0.132 µM and the IC50 [12] was 0.0929 ± 0.0028 µM. The IC50 [13] was 0.49 ± 0.0403 µM.

B2: 24-bp dsDNA (dsDNA)
DNA 1: TAAGACACGATGCGATAAAATCTG
DNA 2: CAGATTTTATCGCATCGTGTCTTA
B2 was tested, and the Kd ([4]; label: FAM) was 0.9 ± 0.2 µM, the Kd ([5]; label: FAM) was 0.08 ± 0.02 µM and the Kd [14] was less than 0.25 µM.

B3: 60-base ssDNA_A (ssDNA)
DNA: AAAGAAAGAAAGAAAGAAAGAAAGAAAGAAAGAAAGAAAGAAAGAAAGAAAGAAAGAAAG
With B3 the IC50 [1] was 0.0589 ± 0.0067 µM, the Kd [15] was 0.5 ± 0.2 µM and the Kd [4] was 2.7 ± 0.1 µM. It also gave a Kd [5] of 0.15 ± 0.03 µM, an IC50 [8] of 3.01 µM and a Kd [9] of 0.15 ± 0.02 µM. For the same binder, the Kd [16] was 2.7 ± 0.1 µM, the Kd [10] was 0.15 ± 0.03 µM and the IC50 [12] was 0.135 ± 0.0166 µM.

B4: 60-base ssRNA_A (ssRNA)
RNA: AAAGAAAGAAAGAAAGAAAGAAAGAAAGAAAGAAAGAAAGAAAGAAAGAAAGAAAGAAAG
In the case of B4, the IC50 [1] is reported as 0.0461 ± 0.0027 µM, the IC50 [17] is reported as 1.02 ± 0.13 µM and the Kd [4] is reported as 1.4 ± 0.2 µM. For the same binder, the Kd [5] was 0.4 ± 0.1 µM, the IC50 [7] was 1.23 ± 0.483 µM and the IC50 [8] was 1.97 ± 0.09 µM. The Kd [10] was 0.4 ± 0.1 µM, the IC50 [11] was 0.166 ± 0.018 µM and the IC50 [12] was 0.1328 ± 0.0004 µM.

B5: 24-bp DNA:RNA hybrid (DNA:RNA)
DNA: TAAGACACGATGCGATAAAATCTG
RNA: CAGAUUUUAUCGCAUCGUGUCUUA
B5 showed a Kd ([4]; label: FAM) of 0.9 ± 0.1 µM and a Kd [14] of less than 0.25 µM.

Binder AAAGAAAGAAAGAAAGAAAGAAAG (ssDNA) [24-base ssDNA_A] has a Kd [18] greater than 1 µM and a Kd ([16]; label: FAM) of 5.7 ± 0.7 µM.

B6: 60-base ssDNA_T (ssDNA)
DNA: TTTCTTTCTTTCTTTCTTTCTTTCTTTCTTTCTTTCTTTCTTTCTTTCTTTCTTTCTTTC
Binder B6 has an IC50 [1] of 0.165 ± 0.0073 µM, an IC50 [2] of 0.828 ± 0.155 µM and a Kd [3] of 0.022 ± 0.004 µM. For the same binder, the Kd [4] was 0.4 ± 0.1 µM, the Kd [5] was 0.32 ± 0.08 µM and the Kd [6] was 0.07 ± 0.02 µM. For the same binder, the IC50 [7] was 1 ± 0.259 µM, the IC50 [8] was 1.39 ± 0.137 µM and the Kd [9] was 0.022 ± 0.004 µM. The Kd [10] was 0.32 ± 0.08 µM, the IC50 [12] was 0.113 ± 0.0073 µM and the IC50 [13] was 0.644 ± 0.133 µM.

B7: 60-bp dsDNA (dsDNA)
DNA 1: TAAGACACGATGCGATAAAATCTGTTTGTAAAATTTATTAAGGGTACAAATTGCCCTAGC
DNA 2: GCTAGGGCAATTTGTACCCTTAATAAATTTTACAAACAGATTTTATCGCATCGTGTCTTA
In the case of B7, the IC50 [1] is reported as 0.0118 ± 0.0003 µM, the IC50 [2] is reported as 0.289 ± 0.0373 µM and the IC50 [17] is reported as 0.142 ± 0.0085 µM. It also gave a Kd [4] of 0.6 ± 0.1 µM, a Kd [6] of 0.02 ± 0.01 µM and a Kd [19] of less than 0.003 µM. The IC50 [7] was 0.268 ± 0.0084 µM, the IC50 [8] was 0.258 ± 0.0249 µM and the IC50 ([11]; chain copies: 4) was 0.627 ± 0.132 µM. For the same binder, the Kd [20] was less than 0.003 µM, the IC50 [12] was 0.0197 ± 0.0019 µM and the IC50 ([13]; chain copies: 4) was 0.331 ± 0.0298 µM.

B8: 24-bp dsRNA (dsRNA)
RNA 1: UAAGACACGAUGCGAUAAAAUCUG
RNA 2: CAGAUUUUAUCGCAUCGUGUCUUA
B8 showed a Kd [18] greater than 1 µM and a Kd ([4]; label: FAM) of 1.2 ± 0.2 µM.

For AAAGAAAGAAAGAAAGAAAGAAAG (ssRNA) [24-base ssRNA_A], the Kd [21] was roughly 0.5 µM.

UUUCUUUCUUUCUUUCUUUCUUUC (ssRNA) [24-base ssRNA_U] showed a Kd ([4]; label: FAM) of 0.21 ± 0.06 µM and a Kd [21] of roughly 0.5 µM.

B9: 60-base ssRNA_U (ssRNA)
RNA: UUUCUUUCUUUCUUUCUUUCUUUCUUUCUUUCUUUCUUUCUUUCUUUCUUUCUUUCUUUC
B9 gave an IC50 [1] of 0.273 ± 0.171 µM, an IC50 [2] of 0.733 ± 0.0485 µM and a Kd [3] of 0.078 ± 0.011 µM. For the same binder, the Kd [4] was 0.3 ± 0.1 µM, the Kd [5] was 0.08 ± 0.02 µM and the Kd [6] was 0.03 ± 0.01 µM. The IC50 [7] was 0.741 ± 0.0703 µM, the Kd [9] was 0.078 ± 0.011 µM and the Kd [10] was 0.08 ± 0.02 µM. For the same binder, the IC50 [11] was 1.12 ± 0.0755 µM, the IC50 [12] was 0.219 ± 0.0335 µM and the IC50 [13] was 0.305 ± 0.0485 µM.

TTTCTTTCTTTCTTTCTTTCTTTC (ssDNA) [24-base ssDNA_T] gave a Kd [18] greater than 1 µM and a Kd ([4]; label: FAM) of 1.2 ± 0.2 µM.
